Experimental data published in patent publication US5858728, “Monoclonal antibody against LPS core” (Common Services Agency, dated 1999).
Numbering of substitutions follows the chain as printed.

B1: murine monoclonal antibody WN1 222-5 (antibody, V domains shown)
VH: EVKLVESGGGLVQPGGSLSLSCAASGFTFSDYYMTWVRQAPGKAPEWLALIRNKRNGDTAEYSASVKGRFTISRDYSRSILHLQMNALRTEDSATYYCVRQGRGYTLDYWGQGTSVTVSS
VL: DIQMNQSPSSLSASLGDTISITCRASQNINIWLSWYQQKPGNVPKLLIYKASNLHTGVPSRFSGSGSGTDFTLIISSLQPEDIATYYCLQGQSYPRTFGGGTKLEIK
B2: murine monoclonal antibody WN1 58-9 (antibody, V domains shown)
VH: EVKLVESGGGLVQPGGSLRLSCAASGFTFIDYYMTWVRHPPGEAPEWLALIRNYRNGDTAEYSASVRGRFTISRDDSQSILYLQMNALRAEDSATYYCVRQGRGYTLDYWGQGTSVTVSS
VL: B1 VL with S20T, S26R, Q27L, P40A, V43I, Y49S, I74T, Q79R

Target: bovine serum albumin (bovine, UniProt P02769)
Test: ELISA, plate coated with BSA as negative control (panel of purified LPS)
Experimental: Microtitre plates (flat bottomed; microtest III flexible assay plates: Becton Dickinson, Falcon 3912) are coated with purified LPS at 2 µg/ml in coating buffer (diethylenebarbituric acid-Na salt 30 mM. Na acetate 30 mM, NaCl 116 mM; pH 4.5). 50 µl aliquots of the LPS solution are distributed into each well. Unrelated protein (BSA, 2% in PBS pH 7.2/0.02% sodium azide) is used to determine non-specific binding. Plates are incubated for 1 hr at 37° C. and then overnight at 4° C. in a humidified chamber. Plates are washed 4 times with a washing solution i.e. phosphate buffered saline (PBS) pH 7.2, 0.05% vol/vol Tween 20, 0.02% sodium azide. Plates are blocked with 250 µl/well of 2% BSA in PBS/sodium azide 0.02% for 3 hrs at room temperature. Plates are washed again.
Antibody solutions are prepared in PBS/BSA 2%/sodium azide 0.02% at various dilutions, e.g. 1 µg/ml, 100 ng/ml, 10 ng/ml and 1 ng/ml. 50 µl aliquots of these solutions are distributed in the wells of the precoated plates. Incubation is carried out overnight at room temperature. […] After 1 hr, absorbance is read at 405 nm using a Titertek Multiskan ELISA reader (MCC/340, Flowlabs).

Row | Binder | binding result
1 | B1 | no binding (tested: 100 ng/ml)
2 | B2 | no binding (tested: 100 ng/ml)
